This is an account of results in paper PMC10175261.

This data set addresses PriA (Escherichia coli, UniProt P17888 1-732). As to conditions: protein: recombinant; tags: N-terminal His; label: 5'-32P on 3L-98 (strand 2); fork 1:2 1:3; ssDNA lagging arm (strand 2).

B1: Fork 1 (structured_DNA)
DNA 1: GCAAGCCTTCTACAGGTCGACCGTCCATGGCGACTCGAGACCGCAATACGGATAAGGGCTGAGCACGCCGACGAACATTCACCACGCCAGACCACGTA
DNA 2: GACTATCTACGTCCGAGGCTCGCGCCGCAGACTCATTTAGCCCTTATCCGTATTGCGGTCTCGAGTCGCCATGGACGGTCGACCTGTAGAAGGCTTGC
DNA 3: TACGTGGTCTGGCGTGGTGAATGTTCGTCGGCGTGCTC
Take B1: the binding signal is 91.9 ± 4.1 % fork shifted.
